Experimental findings from patent US20100068199A1 (RINAT NEUROSCIENCE, published 2010) are described below.

B1: anti-PCSK9 antagonist monoclonal antibody 4A5 (antibody, V domains shown)
VH: EVQLQQSGPELVKPGASVKISCKASGYTFTDYYMNWVKQSHGKSLEWIGDINPNNGGTTYNQKFKGKATLTVDKSYSTAYMELRSLTSEDSAVYYCARWLLFAYWGQGTLVTVSA
VL: DIVMTQSQKFMSTSVGDRVSVTCKASQNVGTNVAWYQQKPGQSPKALIYSASYRYSGVPDRFTGSGSGTDFTLTISNVLSEDLAEYFCQQFYSYPYTFGGGTKLEIKR
notes: Murine full-length IgG from a hybridoma; also called 4A5.G3 (subclone); ATCC PTA-8985
B2: anti-PCSK9 antagonist monoclonal antibody 7D4 (antibody, V domains shown)
VH: EVKLVESEGGLVQPGSSMKLSCTASGFTFSDYYMAWVRQVPEKGLEWVANINYDGSNTSYLDSLKSRFIISRDNAKNILYLQMSSLKSEDTATYYCAREKFAAMDYWGQGTSVTVSS
VL: DIVMTQSHKFMSTSFGDRVSITCKASQDVSNALAWYQQKPGHSPKLLIFSASYRYTGVPDRFTGSGSGTDFTFTISSVQAEDLAVYYCQQHYSTPWTFGGGTKLEIKR
notes: Murine full-length IgG from a hybridoma; also called 7D4.4 (subclone); ATCC PTA-8983
B3: anti-PCSK9 antagonist monoclonal antibody 5A10 (antibody, V domains shown)
VH: QVQLQQPGAELVKPGASVKLSCKASGYTFTSYWMHWVKQRPGQGLEWIGEINPSNGRTNYNEKFKSKATLTVDKSSSTAYMQLSSLTSEDSAVYYCARERPLYAMDYWGQGTSVTVSS
VL: B2 VL with F15V, N31T, L33V, H42Q, F49Y, H91R, W96R
notes: Murine full-length IgG from a hybridoma; Mouse precursor of L1L3; also called 5A10.B8 (subclone)
B4: anti-PCSK9 antagonist monoclonal antibody 6F6 (antibody, V domains shown)
VH: EVQLQQSGPELVKPGASVKISCKASGYTFTDYYMNWVKQSHGKSLEWIGDINPNNGGTSYNQKFKGKATLTVDKSSSTAYMELRSLTSEDSAVYYCAGGGIYYRYDRNYFDYWGQGTTLTVSS
VL: DIQMTQTTSSLSASLGDRVTISCSASQGISNYLNWYQQKPDGTVKLLIYYTSSLHSGVPSRFSGSGSGTDYSLTISNLEPEDIATYYCQQYSKLPFTFGSGTKLEIK
notes: Murine full-length IgG from a hybridoma; also called 6F6.G10.3 (subclone); ATCC PTA-8984
B5: L1L3 humanized anti-PCSK9 monoclonal antibody (antibody, V domains shown)
VH: QVQLVQSGAEVKKPGASVKVSCKASGYTFTSYYMHWVRQAPGQGLEWMGEISPFGGRTNYNEKFKSRVTMTRDTSTSTVYMELSSLRSEDTAVYYCARERPLYASDLWGQGTTVTVSS
VL: DIQMTQSPSSLSASVGDRVTITCRASQGISSALAWYQQKPGKAPKLLIYSASYRYTGVPSRFSGSGSGTDFTFTISSLQPEDIATYYCQQRYSLWRTFGQGTKLEIKR

A word on the IC50: it is the concentration that gives 50% inhibition. One may read the Kd as the concentration at which binding is half-saturated. Broadly, the koff is the first-order rate constant of dissociation. As usually defined, the kon is the second-order rate constant of association.

Where a chain is given by its changes, count along the chain named.

Chain of rat PCSK9 in plasma (P59996 31-691 limits assumed): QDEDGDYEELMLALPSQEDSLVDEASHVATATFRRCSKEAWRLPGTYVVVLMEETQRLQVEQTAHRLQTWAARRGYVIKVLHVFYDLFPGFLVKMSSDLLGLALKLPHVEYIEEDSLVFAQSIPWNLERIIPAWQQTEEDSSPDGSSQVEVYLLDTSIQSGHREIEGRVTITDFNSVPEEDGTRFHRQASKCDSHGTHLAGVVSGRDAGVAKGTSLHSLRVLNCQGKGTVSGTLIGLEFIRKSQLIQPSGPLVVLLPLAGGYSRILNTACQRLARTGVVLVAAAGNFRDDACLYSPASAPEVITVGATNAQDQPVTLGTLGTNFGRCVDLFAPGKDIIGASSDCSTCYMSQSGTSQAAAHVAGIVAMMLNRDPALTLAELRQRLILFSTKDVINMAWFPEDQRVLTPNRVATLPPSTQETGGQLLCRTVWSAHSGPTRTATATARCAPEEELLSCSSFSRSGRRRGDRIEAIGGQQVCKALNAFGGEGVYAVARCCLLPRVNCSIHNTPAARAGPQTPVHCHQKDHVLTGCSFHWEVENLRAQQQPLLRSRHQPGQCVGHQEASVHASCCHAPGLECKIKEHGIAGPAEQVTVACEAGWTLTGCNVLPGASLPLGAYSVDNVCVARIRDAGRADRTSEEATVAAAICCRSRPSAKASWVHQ

The target of one test is T1, recombinant human PCSK9 (human, UniProt Q8NBP7 31-692).
T1 construct: also called hPCSK9
T1 sequence (Q8NBP7 31-692 limits assumed): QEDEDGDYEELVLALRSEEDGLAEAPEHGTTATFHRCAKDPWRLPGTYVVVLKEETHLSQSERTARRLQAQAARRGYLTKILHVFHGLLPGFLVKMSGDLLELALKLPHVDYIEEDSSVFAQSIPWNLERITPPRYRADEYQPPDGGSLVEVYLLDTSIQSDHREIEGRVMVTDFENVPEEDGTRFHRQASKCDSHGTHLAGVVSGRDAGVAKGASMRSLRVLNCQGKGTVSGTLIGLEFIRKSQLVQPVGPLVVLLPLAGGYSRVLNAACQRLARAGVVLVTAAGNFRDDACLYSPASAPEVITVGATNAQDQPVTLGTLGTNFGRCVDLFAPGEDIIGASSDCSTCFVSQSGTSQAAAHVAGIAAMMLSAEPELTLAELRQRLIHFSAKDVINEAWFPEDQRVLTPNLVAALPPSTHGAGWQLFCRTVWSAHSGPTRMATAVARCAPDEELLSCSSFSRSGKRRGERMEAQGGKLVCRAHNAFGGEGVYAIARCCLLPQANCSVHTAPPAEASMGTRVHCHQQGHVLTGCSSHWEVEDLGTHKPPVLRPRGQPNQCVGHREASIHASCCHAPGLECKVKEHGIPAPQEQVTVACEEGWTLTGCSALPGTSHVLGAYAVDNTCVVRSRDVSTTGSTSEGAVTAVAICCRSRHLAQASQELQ
Description: TR-FRET in solution at neutral pH: biotinylated human PCSK9 (30 nM) binding to Europium labeled LDLR extracellular domain (10 nM) blocked by the mAb.
For B1, the IC50 was found to be 7.1 nM.
Take B2: the IC50 is 5.4 nM.
B3: the IC50 came to 6 nM.
The same measure, in the same setting: in the case of B4 it was 6.5 nM.

In the next test the target is rat PCSK9 in plasma (rat, UniProt P59996 31-691). Description: antibody incubated with plasma, complexes purified and probed by Western blot. As to the method:
To determine the species specificity of the anti-PCSK9 antibodies, antibodies were incubated with plasma from different species and the resultant complexes were purified and probed by an independent anti PCSK9 antibody on Western blots. […] Id.
(A western blot detects proteins with antibodies after separation by electrophoresis.)
As for B1, the binding result is given as “binds”.
As to B2, the binding result is “binds”.
B3: the binding result is on record as “binds”.
The same measure, in the same setting: in the case of B4 it was “binds”.

Another test deals with T1, recombinant human PCSK9. Nature of the test: Biacore; format not described.
With B5, the Kd amounted to 0.1 nM.

The target of another test is T2, recombinant mouse PCSK9 (mouse, UniProt Q80W65 35-694).
T2 construct: also called mPCSK9; murine PCSK9
T2 sequence (Q80W65 other isoform, or with tags, fused parts or gaps limits assumed): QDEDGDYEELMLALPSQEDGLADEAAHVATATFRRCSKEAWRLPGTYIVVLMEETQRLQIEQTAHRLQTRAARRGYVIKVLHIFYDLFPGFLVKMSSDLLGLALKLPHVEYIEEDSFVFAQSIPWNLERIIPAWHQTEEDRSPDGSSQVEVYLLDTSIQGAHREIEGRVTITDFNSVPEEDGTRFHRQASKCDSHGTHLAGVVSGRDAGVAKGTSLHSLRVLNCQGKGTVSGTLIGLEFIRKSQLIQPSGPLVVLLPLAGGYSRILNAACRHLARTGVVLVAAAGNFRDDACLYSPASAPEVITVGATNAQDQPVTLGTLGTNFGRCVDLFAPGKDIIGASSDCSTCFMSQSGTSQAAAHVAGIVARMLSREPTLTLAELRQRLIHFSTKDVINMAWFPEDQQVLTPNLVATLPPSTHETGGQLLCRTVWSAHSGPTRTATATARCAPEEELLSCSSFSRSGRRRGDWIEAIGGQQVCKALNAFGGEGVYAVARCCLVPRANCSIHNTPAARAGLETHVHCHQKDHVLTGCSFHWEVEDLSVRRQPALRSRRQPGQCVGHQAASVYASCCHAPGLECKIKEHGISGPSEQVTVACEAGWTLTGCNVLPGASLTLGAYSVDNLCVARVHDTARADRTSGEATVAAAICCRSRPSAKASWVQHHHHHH
Description: Biacore; format not described.
As for B5, the Kd amounted to 0.2 nM.

A further test has as its target T1, recombinant human PCSK9. Description: SPR (Biacore 3000); full-length IgG captured on anti-mouse IgG, PCSK9 injected. As to the method:
(§1) The affinities of PCSK9 antibodies to PCSK9 were measured on a surface plasmon resonance Biacore 3000 biosensor equipped with a research-grade sensor chip using HBS-EP running buffer (Biacore AB, Uppsala, Sweden—now GE Healthcare). Rabbit polyclonal anti-Ms IgGs were amine-coupled at saturating levels onto the chip using a standard N-hydroxysuccinimide/ethyldimethylaminopropyl carbodiimide (NHS/EDC) chemistry. The buffer was switched to HBS-EP+1 mg/mL BSA+1 mg/mL CM-dextran.
(§2) Dissociation was monitored for 5 min. The chip was regenerated after the last injection of each titration with two 30 sec pulses of 100 mM phosphoric acid. Buffer cycles provided blanks for double-referencing the data, which were then fit globally to a simple binding model using Biaevaluation software v.4.1. Affinities were deduced from the quotient of the kinetic rate constants (KD=koff/kₒₙ).
On the technique in general: In SPR one partner is held on a chip, and binding of the other changes the refractive index at the surface.
Turning to B1, the Kd turned out to be 2.8 nM, the koff came to 0.000189 s⁻¹ and the kon was 66600 M⁻¹ s⁻¹.
In the same order, the values of B2 are 6.4 nM, 0.000794 s⁻¹ and 125000 M⁻¹ s⁻¹.
As for B3, the Kd came to 1 nM, the koff came to 8.55e-05 s⁻¹ and the kon was 84700 M⁻¹ s⁻¹.
The corresponding values for B4 are 6.4 nM, 0.000584 s⁻¹ and 91500 M⁻¹ s⁻¹.

A further test deals with T2, recombinant mouse PCSK9. The test is described as above. The method, then: as §1, §2
For B1, the Kd came to 5.1 nM, the koff came out at 0.00072 s⁻¹ and the kon was determined as 141000 M⁻¹ s⁻¹.
B2: the Kd is 1.3 nM.
On to B3, for which the Kd was 3.9 nM, the koff is 0.000489 s⁻¹ and the kon worked out at 127000 M⁻¹ s⁻¹.
On to B4, for which the Kd came out at 17.7 nM, the koff amounted to 0.00197 s⁻¹ and the kon worked out at 111000 M⁻¹ s⁻¹.

The target in another test is T2, recombinant mouse PCSK9. Nature of the test: ELISA, blocking: biotinylated mouse PCSK9 (0.8nM) binding to immobilized human LDLR extracellular domain, pH7.5. As to the method: (§3) ELISA plates (Corning Mixisorb) were coated with a solution of 1 μg/ml recombinant LDLR extracellular domain (R&D Systems) in each well at 4 C overnight, blocked with 2% BSA+PBS for 2 hrs at room temperature, and then washed 5 times with washing buffer (1×PBS+0.05% Tween-20). Wells were incubated with 50 μl of indicated concentrations of biotinylated PCSK9 protein for 1 hr RT. LDLR-PCSK9 binding can be stabilized by adding 50 μl of 4% FDH+4% sucrose+PBS solution and incubate for 5 min. Wells were washed 5 times with washing buffer, incubated with 1:2000 dilution of HRP conjugated Strepavidin (Invitrogen) for 1 hr at RT, washed 5 times with washing buffer. TMB substrate was added to the wells, the solution was incubated 20 to 30 min at RT, and the reaction was terminated using 1 M phosphoric acid. Signals were read at 450 nm.
On the technique in general: An ELISA detects its analyte on a solid surface through an enzyme-linked reagent.
Regarding B1, the “IC50 (read off the curve)” value was about 3 nM.
For the molecule B2, the “IC50 (read off the curve)” value is about 0.9 nM.
Consider B3, for which the “IC50 (read off the curve)” value was about 3 nM.
As for B4, the “IC50 (read off the curve)” value is about 10 nM.

In another test the target is T1, recombinant human PCSK9. Nature of the test: competition ELISA; antibody blocks biotinylated PCSK9 binding to immobilized recombinant LDLR extracellular domain.
For B1, the IC50 was found to be 0.4 nM.
B2: the IC50 was determined as 1.5 nM.
As to B3, the IC50 was found to be 0.4 nM.
Consider B4, for which the IC50 came out at 1.5 nM.

A further test concerns the target T2, recombinant mouse PCSK9. Described as above.
On to B1, for which the IC50 came out at 3 nM.
As to B2, the IC50 is 1 nM.
On to B3, for which the 50% inhibitory concentration (IC50) came to 3 nM.
B4: the IC50 was 10 nM.

Another test addresses T3, PCSK9.
T3 construct: neither names the species
Assay: not given
Take B5: the Kd was found to be 0.007 nM.

Another test has as its target T1, recombinant human PCSK9. Description: ELISA, blocking: biotinylated human PCSK9 (0.4nM) binding to immobilized human LDLR extracellular domain, pH7.5. The method, then: as §3
Regarding B1, the “IC50 (read off the curve)” value was about 0.2 nM.
Regarding B2, the “IC50 (read off the curve)” value is about 1 nM.
Regarding B3, the “IC50 (read off the curve)” value is about 0.3 nM.
As to B4, the “IC50 (read off the curve)” value is about 2 nM.

The target in the next test is T3, PCSK9.
T3 sequence (prodomain, as listed by the source limits assumed, chain 1 of 2): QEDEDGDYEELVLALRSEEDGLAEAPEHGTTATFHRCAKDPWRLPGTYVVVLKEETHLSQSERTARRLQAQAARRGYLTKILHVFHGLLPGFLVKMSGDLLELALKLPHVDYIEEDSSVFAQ
T3 sequence (chain, as listed by the source limits assumed, chain 2 of 2): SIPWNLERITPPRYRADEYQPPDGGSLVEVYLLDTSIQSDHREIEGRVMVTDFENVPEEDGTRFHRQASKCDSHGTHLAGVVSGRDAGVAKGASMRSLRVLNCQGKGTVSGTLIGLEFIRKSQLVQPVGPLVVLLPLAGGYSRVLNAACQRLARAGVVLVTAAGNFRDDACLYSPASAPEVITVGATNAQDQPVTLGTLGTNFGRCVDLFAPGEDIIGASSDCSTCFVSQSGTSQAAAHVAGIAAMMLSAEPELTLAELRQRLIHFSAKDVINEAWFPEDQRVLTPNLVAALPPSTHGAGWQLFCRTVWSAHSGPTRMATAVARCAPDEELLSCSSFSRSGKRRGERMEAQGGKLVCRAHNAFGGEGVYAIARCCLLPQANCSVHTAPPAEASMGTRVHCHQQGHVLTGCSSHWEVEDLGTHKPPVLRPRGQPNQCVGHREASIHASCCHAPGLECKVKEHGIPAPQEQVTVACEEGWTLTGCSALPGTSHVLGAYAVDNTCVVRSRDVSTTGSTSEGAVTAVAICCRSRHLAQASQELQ
Assay: not given
This is another data set of the same source.
For B3, the Kd was 1.1 nM.
